132 substances from the supplement of paper PMC12042874 can be followed below.

± gives the uncertainty stated by the source.

The nature of this series: amyloid nucleation score (Sup35N fusion, yeast selection) (log enrichment); library NNK3; higher = more nucleation; inactive = no reads after selection. The procedure, abridged:
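The nucleation score equals the log enrichment of output over input reads from DiMSum, centred on the mode score of non-aggregating sequences. It was computed only for sequences with 100 or more input reads. The reads came from Illumina sequencing of plasmid inserts from psi-negative yeast expressing Sup35N fused to peptides of 20 random codons, induced with 100 μM copper sulfate for 24 hours and grown 7 days at 30°C without adenine and uracil.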
Regarding KASVSTRFMII, the amyloid nucleation score result is “inactive”. Next, KASWRMLC: “inactive”; KCKANPEDNVRFLRLVYGAS: “inactive”; KCLLV: “inactive”. Regarding KCTGYAGCCWWT, the amyloid nucleation score result was “inactive”. Next, KDKACRNCHKGVMRVTWVK: 0.012 ± 0.87; KDLYIIIITRMYRIFKS: “inactive”.

As to KDRSCNALWGLDCLYGNKGC, the amyloid nucleation score was -0.197 ± 0.61.

KDVSMLSTVTRTPRMRRVST: the amyloid nucleation score result is “inactive”. Next, KEADDCVREAKFGAEFVTLR: “inactive”; KEGNGMSFYN: “inactive”. For KEQDTQSIAQCNKTHRA, the amyloid nucleation score entry was “inactive”.

Consider KFFQIIRASVF, for which the amyloid nucleation score entry was “inactive”.

For KFFQTSLRTAIRLWKSAISC, the amyloid nucleation score entry was “inactive”.

Turning to KFGHSVKSINLLNATTHVWI, the amyloid nucleation score is -0.126 ± 0.47. Next, KFHWWDTCTDVKSRLKVDVE: “inactive”; KFILFRVSVKGIRRFQVGR: 1.47 ± 0.14; KFKENMYLTYSCLHKVIMRF: “inactive”.

The substance KFSNSASFSGFYFNNYLSSQ displayed an amyloid nucleation score of 0.95 ± 0.096.

KGASIYMVTLFSSSNAKM had an amyloid nucleation score of 1.28 ± 0.093. Take KGEFIRPTSMVKYTDGLESG: the amyloid nucleation score result was “inactive”.

In the case of KGMFLVMSRLCPFISWSRSQ, the amyloid nucleation score result was “inactive”. The substance KGRMQVEWDFGISAYCGMML showed an amyloid nucleation score of -0.431 ± 1.1.

For KGSLGVPWLLVNSGLINGC, the amyloid nucleation score entry is “inactive”. Under KGSTLVMLP stands “inactive”. In turn, KGSVRYIDCIVIL returned an amyloid nucleation score of 1.77 ± 0.063. Under KGVFRNAFELFKYHFSHAGM stands “inactive”; under KHLGKAKSSGST, “inactive”; under KHRYAYGRRTNCWASHYLRG, “inactive”. With KHSVSLECRIRSAGDTVGWF, the amyloid nucleation score entry is “inactive”.

With KIDLVGTLVMTIFNAQMQYE, the amyloid nucleation score turned out to be 2.06 ± 0.083. Next, KIICRAWYMSVGERRA: -0.449 ± 1.4. Under KIKSLELMYDISERNF stands “inactive”; under KISETGRCNSLCW, “inactive”; under KKCHGMMCNTITRTINILC, “inactive”. Take KKMHNVALGFMFIVVG: the amyloid nucleation score entry is “inactive”. Under KLASLFNYCSERKN stands “inactive”; under KLGMSPSSLYSPAR, “inactive”. Regarding KLQYYVALSAT, the amyloid nucleation score entry is “inactive”.

For KLRTSGAILVF, the amyloid nucleation score result is “inactive”. Under KLTFNRLLKT stands “inactive”.

For the substance KLVAGFPAGCTK, the amyloid nucleation score result was “inactive”. For KLVFTIRVF, the amyloid nucleation score entry is “inactive”. Substance KLYIALMDKYPGATSMFQPV displayed an amyloid nucleation score of 1.18 ± 0.23. For the substance KMDLTGWTI, the amyloid nucleation score result is “inactive”.

For the substance KMFWLVTHRLN, the amyloid nucleation score entry is “inactive”. Next, KMKCRVIYVLSSLIYCM: “inactive”; KMKIT: “inactive”. Next, KMLNYM: “inactive”; KMRSSVYFLDYNWNKTLPCL: -0.541 ± 1.1; KNGKWRGISSYRNRRFNTGI: “inactive”. Under KNLDKLVKMYH stands “inactive”; under KNLRVLGSSLIGLTLIECHG, -0.801 ± 1.1.

As to KNQNMMMSSQFSMYCWFRLT, the amyloid nucleation score entry was “inactive”. Next, KNVSEEVGLSLVPSEGKSHL: “inactive”; KPGIIIVFVGHG: “inactive”. Under KPISRRGWPRPKAGRNEPPR stands “inactive”; under KPLCLFQARRYRW, “inactive”. Next, KPQYENVMCY: “inactive”; KPRILFQCPIRKVLRVGVKF: “inactive”; KPRSC: “inactive”. For KPSRNESLQMALLSYIYLFR, the amyloid nucleation score result is “inactive”.

On to KQLDDPRQICIFYPT, for which the amyloid nucleation score result is “inactive”.

Turning to KQVNWS, the amyloid nucleation score result was “inactive”. In turn, KRDIVFLCGDWVDSFTCSGG yielded an amyloid nucleation score of 1.79 ± 0.075. Under KRFMDLTHIESSRAKVYRVT stands “inactive”; under KRGLTGVSLVLDETVAVPSD, “inactive”. Under KRITLWCLCFRSYDHEMMV stands “inactive”; under KRNFGWSAIRVQFIDFCLKG, “inactive”; under KRRMRGALRVRVNSTHCWYV, “inactive”. Under KRRSTRL stands “inactive”; under KRSSSAAIKKRIIVQIDGNR, “inactive”; under KRVRVRFASAMHGLMSHPDT, “inactive”. Regarding KSCHQSRFISDYRPAAPEDS, the amyloid nucleation score entry is “inactive”. Next, KSDPPGTVLYYTLAQPLYLL: “inactive”; KSEFSRSHWESDD: “inactive”. Next, KSIIYTILLVWFKYGVHSPL: “inactive”; KSRSYPCIEPNV: “inactive”; KSWYEFPKMLRNHRTYNQRL: “inactive”.

The substance KTLTGQFGCSTTALCNDVEC displayed an amyloid nucleation score of -0.515 ± 0.75. Next, KTMVYGIQANDGWLVHGGFL: “inactive”; KVFPFEVEVLFFHGGDMSCG: -0.121 ± 0.36; KVIRNTFIACCSV: 2.16 ± 0.07. Under KVLLWPSWFK stands “inactive”; under KVRNPWMRIDTVCRFFILVV, “inactive”. Under KVSNTRLVRTINMSCGISYP stands “inactive”; under KVTLRNRFISMPNFMIEP, “inactive”; under KVVNGVRCKKSQGLI, “inactive”. In the case of KVVVMDCWWNNIYCTDQWVI, the amyloid nucleation score was -0.021 ± 0.22. KWFRHFHI: the amyloid nucleation score result was “inactive”. Next, KWKFCSGYAELMLP: “inactive”. Under KWRDIIYCIYSIMIDSCTSR stands “inactive”. Next, KWTSCSYPH: “inactive”; KWVKPRVVTQKR: “inactive”. Substance KYCNFTGVFWQTNIFTVVPM yielded an amyloid nucleation score of 2.17 ± 0.087. Under KYEVCSYFNLCGEGKYRTVV stands “inactive”; under KYFRNIYWHISRRIWAKAPG, “inactive”. In the case of KYGFAVRPFDTGSRMSHFCW, the amyloid nucleation score entry is “inactive”.

In the case of KYINFSLNS, the amyloid nucleation score result was “inactive”.

In the case of KYKVDIMLRIARSTVFSDSF, the amyloid nucleation score entry was “inactive”. Under KYVRVLHCIDLFRSSLSHIG stands “inactive”; under KYWLMVWRFNYCMTYNGGLE, “inactive”.

With LAEVMTVLLFDYVNHWGSAI, the amyloid nucleation score result was “inactive”. Turning to LAIFMDSENSYKRMHTVT, the amyloid nucleation score result is “inactive”. Under LAKDVFIC stands “inactive”. Next, LALFDRGTCRQSSVYSGEDS: “inactive”.

In the case of LAPRSMGIATSSHGSSNVIG, the amyloid nucleation score was -0.387 ± 0.88. Under LARLCCLSVSFSKLLIVFTI stands “inactive”. Under LASIHCVHLMRTYVRVQPPM stands 0.87 ± 0.26. Under LASRMMFSLTDAMTDADGSV stands “inactive”; under LASRRQMMWVVHRFLNGAVH, “inactive”. LASVLEYESWLSLFIWQSKH: the amyloid nucleation score came out at 0.195 ± 0.34. Next, LAVFSNRRCFFLENQYHRRS: “inactive”. Regarding LAVYPTGTDRDFGF, the amyloid nucleation score entry was “inactive”. Next, LAVYSSINFSRNGGSLTWTI: “inactive”.

With LCCKIHSRTKMRRGSC, the amyloid nucleation score result was “inactive”. Under LCCRQVTFERDVVVRYRRRR stands “inactive”; under LCERIGVISGA, “inactive”; under LCFFV, “inactive”. Under LCFNCGVFCFFFRVGETTNW stands 2.84 ± 0.056. Under LCFRCASLTESIGL stands “inactive”; under LCFWNGLTTIDYYSFMGLLS, 0.409 ± 0.15.

Regarding LCGSKICFLDSYDVESLISR, the amyloid nucleation score entry was “inactive”. Under LCGYGSGKTISG stands “inactive”; under LCICFRNLLFEWCSLAE, “inactive”; under LCKIRECHCNLYHRVYMGWN, “inactive”. Next, LCLVSLVIHHGYVLVT: “inactive”; LCNFKDSADNWVSVGGNVGE: “inactive”.

As for LCPLMAY, the amyloid nucleation score entry was “inactive”.

For the substance LCPRFGEEWCC, the amyloid nucleation score entry is “inactive”. Under LCQTVCRAPI stands “inactive”; under LCRSSMGPFGNLWEKQLYIW, “inactive”.
